# In publication PMC7116145 (Science (New York, N.Y.), 2020):
# T1: human glutamate receptor D2 amino-terminal domain (human, UniProt O43424 24-440)
# T1 sequence (looked up): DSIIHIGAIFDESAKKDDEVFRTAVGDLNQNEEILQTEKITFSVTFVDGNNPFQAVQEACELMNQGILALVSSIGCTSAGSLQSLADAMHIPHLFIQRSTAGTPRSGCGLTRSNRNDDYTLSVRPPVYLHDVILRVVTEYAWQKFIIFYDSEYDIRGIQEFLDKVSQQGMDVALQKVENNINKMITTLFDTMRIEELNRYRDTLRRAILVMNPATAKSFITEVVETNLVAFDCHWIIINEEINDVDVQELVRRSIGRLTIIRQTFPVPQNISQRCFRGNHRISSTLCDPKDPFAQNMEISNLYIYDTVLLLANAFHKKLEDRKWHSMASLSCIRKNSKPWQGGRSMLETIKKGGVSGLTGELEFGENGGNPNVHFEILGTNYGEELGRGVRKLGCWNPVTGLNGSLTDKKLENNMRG
# T2: mouse glutamate receptor A4 amino-terminal domain (mouse, UniProt Q9Z2W8 21-420)
# T2 sequence (looked up): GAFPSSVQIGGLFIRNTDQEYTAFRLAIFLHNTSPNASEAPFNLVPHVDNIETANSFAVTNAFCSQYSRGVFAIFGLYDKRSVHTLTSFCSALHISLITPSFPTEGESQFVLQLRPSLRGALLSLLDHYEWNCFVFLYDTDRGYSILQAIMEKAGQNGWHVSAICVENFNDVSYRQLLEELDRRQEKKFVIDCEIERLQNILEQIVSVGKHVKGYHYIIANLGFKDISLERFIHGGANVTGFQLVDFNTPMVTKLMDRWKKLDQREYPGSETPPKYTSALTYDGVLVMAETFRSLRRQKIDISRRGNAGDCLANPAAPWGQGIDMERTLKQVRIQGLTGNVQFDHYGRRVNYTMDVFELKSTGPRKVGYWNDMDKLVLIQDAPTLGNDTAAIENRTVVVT
# Columns and labels:
# [1] = biological target: T1, human glutamate receptor D2 …; assay: SPR
# [2] = biological target: T2, mouse glutamate receptor A4 …; assay: SPR
Kd [1],Kd [2],Binder
> 100 µM,–,"Cbln1, biotinylated on a C-terminal Avitag (immobilised in SPR) (natural protein, UniProt P23435 22-193, looked up, biotin on the Avitag (in vivo biotinylation by BirA)) QNETEPIVLEGKCLVVCDSNPTSDPTGTALGISVRSGSAKVAFSAIRSTNHEPSEMSNRTMIIYFDQVLVNIGNNFDSERSTFIAPRKGIYSFNFHVVKVYNRQTIQVSLMLNGWPVISAFAGDQDVTREAASNGVLIQMEKGDRAYLKLERGNLMGGWKYSTFSGFLVFPL"
–,11 ± 0.9 µM,"pentraxin domain of human neuronal pentraxin-1, biotinylated on a C-terminal Avitag (immobilised in SPR) (domain or fragment, UniProt Q15818 224-431, looked up, biotin on the Avitag (in vivo biotinylation by BirA)) PGDKFQLTFPLRTNYMYAKVKKSLPEMYAFTVCMWLKSSATPGVGTPFSYAVPGQANELVLIEWGNNPMEILINDKVAKLPFVINDGKWHHICVTWTTRDGVWEAYQDGTQGGSGENLAPYHPIKPQGVLVLGQEQDTLGGGFDATQAFVGELAHFNIWDRKLTPGEVYNLATCSTKALSGNVIAWAESHIEIYGGATKWTFEACRQI"
